The supplement of paper PMC10567573

B1: FBXO39 (parent)
chain: RVFKARIYTNRYETNEEDKTLQEI
B2: KLHL14 (parent)
chain: WLYCYDPVMDVWARKQDMNTKRAI

Variants of: B1
Assay: protein stability index of a GFP-peptide fusion (GPS, HEK-293T) (PSI 1-6); higher = more stable
Conditions: c terminus: a fixed tail appended
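Also: lentivirally expressed fusions sorted by FACS into six bins by GFP to DsRed ratio, PSI derived from sequencing read proportions per bin multiplied by bin number.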

Protein stability index: each site, then its substitutions
E23: D 2.58 | F 1.93 | G 2.19 | H 2.74 | I 1.88 | K 2.74 | L 2.42 | M 2.14 | N 2.15 | P 2.39 | Q 2.21 | R 2.05 | S 2.32 | T 2.44 | V 2.41 | W 1.74 | Y 2.14
I24: C 2.61 | D 3.26 | E 3.48 | F 2.55 | H 3.7 | K 2.98 | M 2.25 | N 2.64 | P 3.21 | Q 3.32 | R 3.22 | S 3.36 | T 2.75 | V 3.44 | W 2.34 | Y 3.17

Variants of: B2
Assay: as above
Conditions: c terminus: a fixed tail appended

Protein stability index, by site and new letter:
R22: T 1.91 | V 1.72 | Y 2.01 | K 2 | D 2.13 | W 1.69 | C 2.15 | H 2.01 | S 2.12 | G 1.69 | I 1.74 | L 1.83
N19: K 2.02 | W 2.53 | G 2 | D 2.27 | Q 2.2 | P 1.93 | F 1.52 | I 1.57 | A 1.59 | Y 1.72 | H 1.57 | L 2.05 | T 1.88 | M 2.13 | C 1.76 | V 2.55
P7: T 1.64 | R 1.87 | A 2.87 | Q 1.51 | G 1.94 | N 1.84 | M 1.98 | F 3.12 | K 2.24 | D 2.28 | H 2.1
Q16: P 1.85 | K 1.7 | C 1.81 | D 2.15 | S 1.94 | T 1.83 | Y 1.69 | V 2.29 | E 2.4 | R 1.95 | I 1.81 | N 2.16 | M 2.5 | W 2.7
L2: G 2.29 | W 1.56 | C 2.18 | I 1.84 | R 2.06 | M 1.9 | A 2.24 | T 2.11 | D 2.52 | N 2.19 | P 2.13 | E 2.61 | V 2.16 | Y 2.52
M9: G 1.77 | A 2.62 | R 2.09 | Q 2.6 | T 2.55 | N 2.18 | H 2.24 | C 2.35 | E 1.74 | S 2.26 | P 2.32 | L 2.17
R14: K 1.9 | L 2.36 | D 2.11 | I 1.84 | W 1.85 | Y 1.81 | S 1.88 | F 1.57 | C 1.75 | N 1.77 | A 1.85 | G 1.81 | T 1.54 | V 2.62
D6: H 2.6 | A 3.01 | F 2.99 | R 1.4 | S 1.7 | M 2.33 | T 2.47 | I 1.83 | Q 2.29 | P 1.84 | G 2.9 | C 2.14 | E 1.74
A23: C 1.78 | Y 1.92 | I 1.57 | M 2.22 | T 1.76 | V 1.63 | F 2.24 | P 1.58 | Q 2.11 | L 1.6 | K 1.97 | D 2.22 | G 1.51 | W 1.37 | H 2.02
M18: P 1.98 | F 2.56 | I 2.28 | D 3.05 | G 3.03 | T 2.13 | V 2.19 | Y 2.17 | L 1.82 | S 2.39 | W 2.86 | A 2.15
V11: Y 1.92 | W 1.76 | R 2.1 | N 2.21 | H 1.61 | C 1.91 | Q 1.98 | G 1.62 | E 2.3 | I 1.43
V8: E 2.17 | K 1.88 | L 2.25 | T 2.45 | G 1.58 | F 2.18 | Q 1.78 | I 2.03 | P 1.8 | C 1.81 | R 1.92 | S 1.89 | M 2.26 | H 2.34
D10: P 1.72 | E 2.19 | I 1.8 | H 2.11 | M 1.59 | A 1.88 | C 1.91 | S 1.99 | G 2.77 | V 1.52 | T 1.69
W12: G 2.1 | R 1.78 | L 2.07 | Q 1.92 | H 2.04 | I 1.47 | C 2.09 | P 1.76 | T 2.11 | V 1.95 | M 1.77
K15: N 2.03 | D 1.97 | H 1.94 | Y 2.08 | S 1.79 | F 1.76 | R 2.14 | L 2.21 | M 1.54 | V 1.89 | G 1.56 | T 1.71
C4: T 2.84 | S 2.14 | V 2.08 | Q 2.31 | H 2.6 | I 1.96 | K 2.04 | Y 2.13 | G 2.58 | W 2.35 | M 1.89 | N 2.5 | L 1.61 | A 2.34
I24: W 2.39 | M 2.16 | P 2.68 | D 2.92 | Q 2.79 | F 1.42 | G 2.13 | Y 2.45 | A 2.36 | S 2.86 | N 2.29 | R 1.4 | H 2.63
K21: R 1.83 | M 2.08 | G 2.61 | S 1.91 | I 1.71 | H 1.94 | C 2.23 | A 1.78 | Y 1.92 | D 2.34 | F 1.86 | W 2.2 | L 1.88 | T 1.83
T20: E 1.95 | I 1.91 | C 1.62 | D 2.15 | Y 2.02 | N 1.85 | L 2.28 | S 1.99 | V 2.11 | H 1.88
Y5: N 2.08 | K 2.46 | I 1.93 | M 1.92 | P 2.9 | Q 1.6 | H 1.91 | D 2.61 | A 1.92 | R 2.26 | V 1.98
Y3: G 2.01 | I 2.06 | A 2.02 | Q 1.97 | W 2.42 | F 1.65 | R 1.25 | P 2.7 | C 2.64 | T 2.36 | L 2.15 | H 2.22 | V 2.86
W1: R 2.55 | E 3.72 | N 3.29 | Q 3.33 | M 2.62 | I 1.92 | V 1.63 | G 2.4 | T 3.09 | L 2.53 | Y 2.25 | C 2.27 | P 2.88
A13: K 2.52 | S 2 | H 2.67 | V 2.13 | P 1.82 | L 1.97 | I 2.18 | N 2.46 | R 1.8 | G 1.97
D17: K 1.65 | T 1.78 | H 2.21 | L 2.48 | S 2.38 | M 2.2 | R 2.34 | C 1.74 | A 2.33 | N 1.91 | I 1.94 | P 2.16
